This note sets out measurements from patent US20150086555A1.

Conditions in all cases: remark: other sources report otherwise
Experiment [1] addresses recombinant homotrimeric HA A/duck/Yangzhou/02/05 H8N4 (Influenza A virus A/duck/Yangzhou/02/2005(H8N4)). The experiment in a line: protein microarray, purified IgG, trimeric HA.
Experiment [2] has as its target recombinant homotrimeric HA A/South Carolina/1/18 H1N1 (Influenza A virus A/South Carolina/1/18 (H1N1)). The experiment in a line: protein microarray, purified IgG, trimeric HA.
The target in experiment [3] is recombinant homotrimeric HA A/Netherlands/219/03 H7N7 (Influenza A virus A/Netherlands/219/03(H7N7)). The experiment in a line: protein microarray, purified IgG, trimeric HA.
Experiment [4] has as its target recombinant homotrimeric HA A/Hong Kong/1073/99 H9N2 (Influenza A virus A/Hong Kong/1073/99 (H9N2)). The experiment in a line: protein microarray, purified IgG, trimeric HA.
Experiment [5] concerns the target recombinant homotrimeric HA A/Wisconsin/67/05 H3N2 (Influenza A virus A/Wisconsin/67/2005(H3N2)). The experiment in a line: protein microarray, purified IgG, trimeric HA.
Experiment [6] deals with recombinant homotrimeric HA A/Japan/305/57 H2N2 (Influenza A virus A/Japan/305/1957(H2N2)). As to the kind of experiment: protein microarray, purified IgG, trimeric HA.
In experiment [7] the target is recombinant homotrimeric HA A/Solomon Islands/3/06 H1N1 (Influenza A virus A/Solomon Islands/3/2006(H1N1)). The experiment in a line: protein microarray, purified IgG, trimeric HA.
Experiment [8] concerns the target recombinant homotrimeric HA A/chicken/Vietnam/NCVD-016/08 H5N1 (Influenza A virus A/chicken/Vietnam/NCVD-016/2008(H5N1)). The experiment in a line: protein microarray, purified IgG, trimeric HA.
In experiment [9] the target is recombinant soluble homotrimeric HA of A/Solomon Islands/3/06 (H1N1) (Influenza A virus A/Solomon Islands/3/2006(H1N1)). As to the kind of experiment: HA microarray, BCC supernatant.
The target of experiment [10] is recombinant soluble homotrimeric HA of A/chicken/Vietnam/NCVD-016/08 (H5N1) (Influenza A virus A/chicken/Vietnam/NCVD-016/2008(H5N1)). The experiment in a line: HA microarray, BCC supernatant.
In experiment [11] the target is recombinant soluble homotrimeric HA of A/Wisconsin/67/05 (H3N2) (Influenza A virus A/Wisconsin/67/2005(H3N2)). The experiment in a line: HA microarray, BCC supernatant.
Experiment [12] concerns the target recombinant soluble homotrimeric HA of A/swine/Ontario/01911-2/99 (H4N6) (Influenza A virus A/Swine/Ontario/01911-2/99 (H4N6)). The experiment in a line: HA microarray, BCC supernatant.
Experiment [13] addresses recombinant soluble homotrimeric HA of A/Netherlands/219/03 (H7N7) (Influenza A virus A/Netherlands/219/03(H7N7)). As to the kind of experiment: HA microarray, BCC supernatant.
Experiment [14] deals with recombinant soluble homotrimeric HA of A/Japan/305/57 (H2N2) (Influenza A virus A/Japan/305/1957(H2N2)). The experiment in a line: HA microarray, BCC supernatant.
The target in experiment [15] is recombinant soluble homotrimeric HA, A/Wisconsin/67/05 H3N2 (Influenza A virus A/Wisconsin/67/2005(H3N2)). The experiment in a line: microarray, transfection SN IgG, trimeric HA.
The target in experiment [16] is recombinant soluble homotrimeric HA, A/South Carolina/1/18 H1N1 (Influenza A virus A/South Carolina/1/18 (H1N1)). As to the kind of experiment: microarray, transfection SN IgG, trimeric HA.
The target in experiment [17] is recombinant soluble homotrimeric HA, A/northern shoveler/California/HKWF115/07 H6N4 (Influenza A virus A/northern shoveler/California/HKWF115/2007(H6N1)). The experiment in a line: microarray, transfection SN IgG, trimeric HA.
Experiment [18] concerns the target recombinant soluble homotrimeric HA, A/Netherlands/219/03 H7N7 (Influenza A virus A/Netherlands/219/03(H7N7)). The experiment in a line: microarray, transfection SN IgG, trimeric HA.
In experiment [19] the target is recombinant soluble homotrimeric HA, A/chicken/Vietnam/NCVD-016/08 H5N1 (Influenza A virus A/chicken/Vietnam/NCVD-016/2008(H5N1)). As to the kind of experiment: microarray, transfection SN IgG, trimeric HA.
The target in experiment [20] is recombinant soluble homotrimeric HA, A/Japan/305/57 H2N2 (Influenza A virus A/Japan/305/1957(H2N2)). The experiment in a line: microarray, transfection SN IgG, trimeric HA.
The target of experiment [21] is recombinant soluble homotrimeric HA, A/duck/Yangzhou/02/05 H8N4 (Influenza A virus A/duck/Yangzhou/02/2005(H8N4)). The experiment in a line: microarray, transfection SN IgG, trimeric HA.
In experiment [22] the target is recombinant soluble homotrimeric HA of A/Egypt/3300-NAMRU3/08 (H5N1) (Influenza A virus A/Egypt/3300-NAMRU3/2008(H5N1)). The experiment in a line: HA microarray, BCC supernatant.
Experiment [23] addresses recombinant soluble homotrimeric HA of A/Indonesia/5/05 (H5N1) (Influenza A virus A/Indonesia/5/2005(H5N1)). As to the kind of experiment: HA microarray, BCC supernatant.
Experiment [24] addresses recombinant soluble homotrimeric HA of A/northern shoveler/California/HKWF115/07 (H6) (Influenza A virus A/northern shoveler/California/HKWF115/2007(H6N1)). As to the kind of experiment: HA microarray, BCC supernatant.
The target in experiment [25] is recombinant soluble homotrimeric HA of A/Hong Kong/2108/03 (H9N2) (Influenza A virus A/HK/2108/2003(H9N2)). The experiment in a line: HA microarray, BCC supernatant.
Experiment [26] concerns the target recombinant soluble homotrimeric HA of A/Anhui/1/05 (H5N1) (Influenza A virus A/Anhui/1/2005(H5N1)). The experiment in a line: HA microarray, BCC supernatant.
For experiment [27], the target named is recombinant trimeric HA of H1N1 A/California/04/09 (Influenza A virus A/California/04/2009 (H1N1)).

B1: TCN-554 (5277_M05) (antibody, V domains shown)
VH: QVQLVQSGADLKKPGASVKVSCKASGYTFTDYYIHWVRQAPGQGLEWMGWINPESGDTKYAQKFQGRVTMTRDTSITTAYMELGRLRSDDTAVYYCARDVSTTWSWFAPWGQGTLVTVSS
VL: DIVMTQSPDSLAVSLGERATINCRSSQSIFHNSNNENYLAWYQQKPGQPPKLLIYWASTRESGVPDRFSGSGSGTDFTLTISSLQAEDVAVYFCQQYYNAPLTFGGGTKVEIK
Regarding B1, the Trimeric HA Binding: RLU in [1] was determined as 386 RLU; in experiment [2], 166 RLU; in experiment [3], 342 RLU; in experiment [4], 539 RLU; in experiment [5], 27100 RLU; in experiment [6] it was 705 RLU. Also, the Trimeric HA Binding: RLU in experiment [7] worked out at 1540 RLU; in experiment [8], 544 RLU; in experiment [9], 115 RLU; in experiment [10], 250 RLU; in experiment [11], 46500 RLU; in [12], 78 RLU. The Trimeric HA Binding: RLU in experiment [13] was determined as 610 RLU; in experiment [14], 328 RLU; in experiment [15], 25300 RLU; in experiment [16], 1260 RLU; in experiment [17], 3350 RLU; in [18], 4520 RLU. Besides, the results for the Trimeric HA Binding: RLU in experiment [19], in [20] and in [21] were 2710 RLU, 2620 RLU and 5810 RLU, respectively.

B2: TCN-521 (3280_D18) (antibody, V domains shown)
VH: EVQLVQSGGGLVQPGGSLRLACVVSGFTVTSNYITWVRQAPGKGLEWVSVIYSHGRAYYSASVNGRFTISRHTSKNTVYLEMNSLRPEDTAVYYCAGGGLVGGYDEYFFDYWGQGTLATVSS
VL: ETVLTQSPGTLSLTPGERATLSCRVGQSVSGSHLAWYQQKPGQAPRLLIYGASSRATGIPDRFGGSVSGTDFTLTISRLEPEDSAVYYCQQYGDSRYTFGQGTKLEIK
As to B2, the Trimeric HA Binding: RLU in [22] was found to be 47900 RLU; in [23], 31500 RLU; in [9], 39600 RLU; in [24] it was 48000 RLU; in experiment [10], 32400 RLU; in experiment [25], 93 RLU. For the same molecule, the figures for the Trimeric HA Binding: RLU in [26], in experiment [13] and in experiment [14] were 487 RLU, 2500 RLU and 6730 RLU, respectively.

B3: Fab fragment of TCN-522 (3212_I12) (Fab, V domains shown)
VH: QVQLQQWGAGLLKPSETLSLTCTVSGGSLTDYSWNWIRQPPGKGLEWIGDTLHNGYTNYNPSLRGRVSISIDTSKNQVSLRLTSVTAADTALYYCARGSGGYGGFDYFGKLRTWDFWGQGTLVTVSS
VL: DIQLTQSPSSLSASVGDRVTITCRASQGIRNDLGWYQQKPGNAPKRLIFGASSLQSGVPSRFSGSGSGTEFTLTISSLQPEDFATYYCLQHNSYPYTFGQGTKLEIK
For the molecule B3, in experiment [27], the Kd – broadly, a measure of binding affinity in units of concentration – stood at 0.55 nM; the koff (in general, a measure of how fast the partners let go of each other) worked out at 3.8e-05 s⁻¹; the kon (usually the second-order rate constant of association) was found to be 69800 M⁻¹ s⁻¹.

B4: Fab fragment of TCN-535 (5246_P19) (Fab, V domains shown)
VH: QVQLVQSGSEVKKPGTSVKVSCTASGSVFTNYGISWVRQAPGQGLEWMGGIIPLFGAAKYAQKFQGRVTITADESTKTVYMELSRLTSKDTAIYFCAKAPRVYEYYFDQWGQGTPVTVSS
VL: EIVLTQSPGTLSLSPGERATLSCRASQSVSSSQLAWYQQKPGQAPRLIIYGASTRATGIPDRFSGSGSGTDFTLTIGRLEPEDFAVFFCQQYSTSPPTFGQGTKVDFK
As for B4, in experiment [27], the Kd worked out at 0.165 nM, the koff was found to be 0.000163 s⁻¹ and the kon amounted to 987000 M⁻¹ s⁻¹.

B5: Fab fragment of TCN-530 (5248_H10a) (Fab, V domains shown)
VH: QVQLVQSGAEVRKPGSSVKVSCKASGGPFMSYAIGWVRQAPGQGLEWMGGINPVFGRPHYAQKFQGRVTIATDDSTKTSYMELSSLTSEDTGMYYCASRYSRSSPGTFESWGQGTLVTVSS
VL: EIVMTQFPATLSVSPGERVTLSCRASQSVSNNLAWYQQKPGQPPRLLIYDASTRATGVPAKFSGTGSGTEFTLSISSLQSEDFAVYYCQQYHNWPPSYSFGLGTKLEIK
Consider B5, for which, in experiment [27], the Kd worked out at 0.562 nM, the koff came out at 0.000287 s⁻¹ and the on-rate (kon) is 511000 M⁻¹ s⁻¹.

B6: Fab fragment of TCN-534 (5249_B02) (Fab, V domains shown)
VH: QVQLVQSGAEVKKPGSSVKVSCRESGGTFNGYTITWVRQAPGQGLEWMGGIIPMMGTVNYAQKLQGRVTITTDYFTKTAYMDLNNLRSEDTAMYYCVKIRYTGQQLLWGQGTLVTVSS
VL: DIQMTQSPSTLSASIGDRVTITCRASQSIASWLAWYQQKPGKAPKLLIYEAVNLESGVPSRFSGSGSGTDFTLTISSLQPDDFATYFCQHYGTISQTFGGGTKVEIK
Take B6: in [27], the Kd was 0.104 nM, the koff worked out at 5.96e-05 s⁻¹ and the kon is 573000 M⁻¹ s⁻¹.

B7: Fab fragment of TCN-523 (5248_A17) (Fab, V domains shown)
VH: QVQLVQSGAEVKKPGSSVKVSCKASGGSFSNYAFSWVRQAPGQGLEWMGGTIPLLGTTNYAQKFQGRVTISADQFTSTAYMELGSLRSEDTAVYYCTRRKMTTAFDSWGQGTLVTVSS
VL: QPVLTQPPSASASLGASVTLTCTLSSAYSNYKVDWYQQRPGKGPRFVMRVGTGGIVGSKGDGIPDRFSVLGSGLNRYLTIKNIQEEDESDYHCGADHGSGSNFVSPYVFGGGTKLTVL
As for B7, in experiment [27], the Kd was found to be 0.09 nM, the off-rate constant (koff) was determined as 5.1e-05 s⁻¹ and the kon was determined as 540000 M⁻¹ s⁻¹.
